T1: SRSF6 (human, UniProt Q13247 1-344)
T1 construct: also called NP_006266.2
T1 sequence (looked up): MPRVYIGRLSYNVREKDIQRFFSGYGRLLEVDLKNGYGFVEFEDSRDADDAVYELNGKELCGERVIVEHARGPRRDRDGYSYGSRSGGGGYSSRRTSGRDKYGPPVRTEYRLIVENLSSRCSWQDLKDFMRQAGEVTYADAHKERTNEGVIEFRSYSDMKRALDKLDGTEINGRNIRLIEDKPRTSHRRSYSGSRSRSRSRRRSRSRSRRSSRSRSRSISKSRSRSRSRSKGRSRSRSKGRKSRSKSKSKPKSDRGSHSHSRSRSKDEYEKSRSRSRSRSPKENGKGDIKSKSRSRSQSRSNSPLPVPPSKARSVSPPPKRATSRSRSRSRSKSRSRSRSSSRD

T2: PUF60 (human, UniProt Q9UHX1 1-559, limits assumed)
T2 construct: also called NP_016868724.1
T2 sequence (looked up): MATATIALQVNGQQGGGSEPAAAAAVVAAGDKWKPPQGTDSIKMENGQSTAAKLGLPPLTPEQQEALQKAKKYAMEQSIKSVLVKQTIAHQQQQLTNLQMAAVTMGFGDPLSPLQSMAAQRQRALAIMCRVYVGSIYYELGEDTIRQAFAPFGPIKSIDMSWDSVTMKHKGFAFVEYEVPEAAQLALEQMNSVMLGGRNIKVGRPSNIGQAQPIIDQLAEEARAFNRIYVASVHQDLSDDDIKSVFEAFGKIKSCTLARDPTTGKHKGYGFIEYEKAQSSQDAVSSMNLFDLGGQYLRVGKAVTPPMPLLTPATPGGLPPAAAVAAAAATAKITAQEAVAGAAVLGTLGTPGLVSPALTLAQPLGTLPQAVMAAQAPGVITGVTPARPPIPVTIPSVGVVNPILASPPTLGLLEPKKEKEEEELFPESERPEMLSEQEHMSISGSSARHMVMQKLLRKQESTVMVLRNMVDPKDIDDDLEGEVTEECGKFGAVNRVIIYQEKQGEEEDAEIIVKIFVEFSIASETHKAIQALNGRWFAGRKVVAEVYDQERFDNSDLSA

B1: C-terminal FLAG tagged B3GNT2 (enzyme, human, UniProt Q9NY97 1-397, looked up)
chain: MSVGRRRIKLLGILMMANVFIYFIMEVSKSSSQEKNGKGEVIIPKEKFWKISTPPEAYWNREQEKLNRQYNPILSMLTNQTGEAGRLSNISHLNYCEPDLRVTSVVTGFNNLPDRFKDFLLYLRCRNYSLLIDQPDKCAKKPFLLLAIKSLTPHFARRQAIRESWGQESNAGNQTVVRVFLLGQTPPEDNHPDLSDMLKFESEKHQDILMWNYRDTFFNLSLKEVLFLRWVSTSCPDTEFVFKGDDDVFVNTHHILNYLNSLSKTKAKDLFIGDVIHNAGPHRDKKLKYYIPEVVYSGLYPPYAGGGGFLYSGHLALRLYHITDQVHLYPIDDVYTGMCLQKLGLVPEKHKGFRTFDIEEKNKNNICSYVDLMLVHSRKPQEMIDIWSQLQSAHLKC
notes: FLAG-tagged ORF overexpressed in cells; pulled down from lysate with mouse anti-FLAG; also called C-FLAG B3GNT2; C-term flag; not shown: C-terminal FLAG tag
B2: C-terminal FLAG tagged B3GNT2 (enzyme, human, UniProt Q9NY97 1-397, looked up)
chain: B1 chain
notes: FLAG-tagged ORF overexpressed in A375 cells; pulled down from the lysate with mouse anti-FLAG; also called C-FLAG B3GNT2; C-term flag; not shown: C-terminal FLAG tag

Key:
Assay in all cases: co-IP with anti-FLAG, C-FLAG B3GNT2, mass spectrometry
LGALS7B = target: T3, LGALS7B (human, UniProt P47929 1-136)
T3 construct: also called NP_001035972.1
T3 sequence (P47929 whole entry): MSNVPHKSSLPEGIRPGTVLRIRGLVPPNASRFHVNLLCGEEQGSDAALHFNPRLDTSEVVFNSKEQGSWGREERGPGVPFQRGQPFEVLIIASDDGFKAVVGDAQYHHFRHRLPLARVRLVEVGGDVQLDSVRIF
Protocol: (§1) Cells were plated in 10-cm cell culture dishes and grown to 60-80% confluency. For each condition, two biological replicates were harvested for co-IP. Cells were washed with PBS and 4 mL of lysis buffer (20 mM HEPES, 1% Triton X-100, 150 mM NaCl, 1 mM EDTA, and 10% glycerol) containing protease inhibitor cocktail was added. Cells were scraped and lysate was incubated at 4° C. under rotary agitation for 1 h. Lysate was centrifuged at 14,000×g for 10 min at 4° C. Supernatant was transferred to a new tube and an aliquot was taken as the input. […] For Western blots, 10 μg/mL Chicken Anti-FLAG (Aves labs ET-DY100) and IgY control (R&D Systems AB-101-C) antibodies were biotinylated (Thermo Fisher Scientific 90407) and added to the respective conditions. Lysates with antibodies were incubated at 4° C. under rotary agitation overnight. For each mL of lysate, 50 μL of Pierce Protein A/G Magnetic Beads (Mass spectrometry; Thermo Fisher Scientific 88803) or Pierce Streptavidin Magnetic Beads (Western blot; Thermo Fisher Scientific 88817) was washed twice with lysis buffer. Lysates with antibodies were added to the beads and incubated at 4° C. under rotary agitation for 4 h. Beads were washed with lysis buffer 3 times and resuspended in lysis buffer for storage.
(§2) Magnetic beads were resuspended in 100 mM Tris pH 7.8, reduced, alkylated and digested with trypsin at 37° ° C. overnight. This solution was subjected to solid phase extraction to concentrate the peptides and remove unwanted reagents followed by injection onto a Shimadzu HPLC with fraction collector. Eight fractions were collected and after concentration were injected on a Waters NanoAcquity HPLC equipped with a self-packed Aeris 3 μm C18 analytical column 0.075 mm by 20 cm, (Phenomenex). Peptides were eluted using standard reverse-phase gradients. The effluent from the column was analyzed using a Thermo Orbitrap Elite mass spectrometer (nanospray configuration) operated in a data dependent manner for 54 minutes. The resulting fragmentation spectra were correlated against the known database using Proteome Discover 1.4 (Thermo Fisher Scientific).

RPL23 = RPL23 (human, UniProt P62829 1-140)
Protocol: as §1, §2

YBX1 = target: T4, YBX1 (human, UniProt P67809 2-324)
T4 construct: also called NP_004550.2
T4 sequence (P67809 2-324 limits assumed): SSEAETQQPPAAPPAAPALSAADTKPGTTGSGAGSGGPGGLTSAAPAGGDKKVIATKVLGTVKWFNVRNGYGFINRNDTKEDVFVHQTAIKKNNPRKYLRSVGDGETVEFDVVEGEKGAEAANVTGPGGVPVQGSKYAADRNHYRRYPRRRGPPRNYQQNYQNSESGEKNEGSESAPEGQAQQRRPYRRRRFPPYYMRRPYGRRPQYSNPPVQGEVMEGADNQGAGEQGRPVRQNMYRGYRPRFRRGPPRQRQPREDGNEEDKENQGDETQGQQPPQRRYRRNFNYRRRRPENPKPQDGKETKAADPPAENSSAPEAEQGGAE
Protocol: as §1, §2

RPS14 = RPS14 (human, UniProt P62263 2-151)
Protocol: as §1, §2

P0AA25.2 = P0AA25.2 (UniProt P0AA25 2-109 = thioredoxin)
P0AA25.2, sequence (P0AA25 2-109, one chain of several): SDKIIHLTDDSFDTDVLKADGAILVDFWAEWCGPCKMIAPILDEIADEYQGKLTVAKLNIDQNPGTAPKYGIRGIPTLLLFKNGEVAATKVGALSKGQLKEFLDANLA
Protocol: as §1, §2

SRSF6 = target: T1, SRSF6
Protocol: as §1, §2

RPS20 = RPS20 (human, UniProt P60866 2-119)
Protocol: as §1, §2

PUF60 = target: T2, PUF60
Protocol: as §1, §2

CLTC = target: T5, CLTC (human, UniProt Q00610 2-1675, limits assumed)
T5 construct: also called NP_001275582.1 (+2)
T5 sequence (Q00610 2-1675 limits assumed): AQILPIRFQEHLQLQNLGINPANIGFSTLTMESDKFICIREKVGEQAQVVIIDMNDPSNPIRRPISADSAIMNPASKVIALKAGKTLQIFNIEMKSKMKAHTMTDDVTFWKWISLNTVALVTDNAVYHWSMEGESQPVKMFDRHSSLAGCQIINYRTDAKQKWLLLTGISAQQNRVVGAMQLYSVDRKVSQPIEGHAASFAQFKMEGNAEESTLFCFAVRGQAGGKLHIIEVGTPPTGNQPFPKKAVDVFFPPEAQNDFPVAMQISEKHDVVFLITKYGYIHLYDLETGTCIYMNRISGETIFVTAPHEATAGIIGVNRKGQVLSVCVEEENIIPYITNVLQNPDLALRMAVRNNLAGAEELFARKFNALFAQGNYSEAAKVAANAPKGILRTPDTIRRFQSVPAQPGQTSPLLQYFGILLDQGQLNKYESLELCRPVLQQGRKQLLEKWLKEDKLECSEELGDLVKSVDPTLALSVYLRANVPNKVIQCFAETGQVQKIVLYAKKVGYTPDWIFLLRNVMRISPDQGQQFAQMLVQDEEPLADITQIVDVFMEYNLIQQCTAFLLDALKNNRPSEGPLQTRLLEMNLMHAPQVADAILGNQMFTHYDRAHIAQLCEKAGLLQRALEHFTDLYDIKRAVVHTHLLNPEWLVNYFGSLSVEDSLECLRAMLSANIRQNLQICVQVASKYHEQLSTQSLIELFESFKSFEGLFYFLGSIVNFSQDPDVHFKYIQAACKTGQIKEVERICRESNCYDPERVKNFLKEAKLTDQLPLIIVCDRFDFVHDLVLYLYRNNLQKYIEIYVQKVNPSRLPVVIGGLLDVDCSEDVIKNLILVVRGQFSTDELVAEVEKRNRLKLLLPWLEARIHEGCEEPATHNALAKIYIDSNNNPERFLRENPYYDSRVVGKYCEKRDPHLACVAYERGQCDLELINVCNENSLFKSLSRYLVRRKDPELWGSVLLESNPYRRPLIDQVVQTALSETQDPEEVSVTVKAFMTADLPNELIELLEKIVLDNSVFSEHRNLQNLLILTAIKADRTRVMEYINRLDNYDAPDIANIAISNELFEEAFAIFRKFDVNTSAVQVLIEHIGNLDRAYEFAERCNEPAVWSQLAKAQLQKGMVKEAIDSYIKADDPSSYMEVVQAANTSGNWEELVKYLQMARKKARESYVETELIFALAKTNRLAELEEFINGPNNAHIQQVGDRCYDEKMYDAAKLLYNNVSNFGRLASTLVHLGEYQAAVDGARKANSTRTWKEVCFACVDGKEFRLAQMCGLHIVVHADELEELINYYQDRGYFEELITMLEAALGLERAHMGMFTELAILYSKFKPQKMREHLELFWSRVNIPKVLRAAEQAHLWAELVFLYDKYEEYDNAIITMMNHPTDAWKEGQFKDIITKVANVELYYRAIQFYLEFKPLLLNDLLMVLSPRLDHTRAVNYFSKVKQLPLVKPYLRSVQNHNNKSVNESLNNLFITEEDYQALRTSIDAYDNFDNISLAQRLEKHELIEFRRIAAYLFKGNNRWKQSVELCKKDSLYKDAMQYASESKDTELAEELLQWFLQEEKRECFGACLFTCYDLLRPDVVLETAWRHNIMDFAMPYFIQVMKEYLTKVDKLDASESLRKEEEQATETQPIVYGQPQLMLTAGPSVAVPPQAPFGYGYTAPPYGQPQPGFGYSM
Protocol: as §1, §2

Binder	co-IP mass spectrometry count (LGALS7B)	co-IP mass spectrometry count (RPL23)	co-IP mass spectrometry count (YBX1)	co-IP mass spectrometry count (RPS14)	co-IP/MS count, C-term flag (P0AA25.2)	co-IP/MS count, C-term flag (SRSF6)	co-IP/MS count, C-term flag (RPS20)	co-IP/MS count, C-term flag (PUF60)	co-IP/MS count, C-term flag (CLTC)
B1	4	6	9	18	–	–	–	–	–
B2	–	–	–	–	7	4	7	6	7
